Experiment: soluble fraction after stress (log2 fold change); higher = more stays soluble; pooled small domains, quantitative proteomics
Details: stress: 75 degC
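Also: 20 min heating vs room temperature control held 20 min.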

In order of rising “soluble fraction (log2)” value:
1. HMINLNEVLANFQKSYPNLAGFKYDQGMDALVYEGNYIRLNGYMLSRINPTLFSMSPDDIFTYLKNGF  -3.17
2. HMIPRGFSRYYILELLQKKPHTGKEIIDNAIKESGGRWNPSPGLIYPLLGRLLDENLIEETNDGKYK  -2.24
3. HMIKLSTNENTALRLVMERGLVTESELKGLFDNPVAVMESLISKMIETNTHWIHSERSENGEWVYAWQ  -2.01
4. HMIQVNKTQALIIEEMRDNPNITLLELQKTLSLGRTAIQNNVSSLRKRQIIKRVGSNKNGYWEVTDK  -1.89
5. HMILYDDEYKGPRYRYGLHSRPLSPGAVPKGFIIHSDRPHPDFRHGTLDYPVKLPDDRAANFELIFIGEFD  -1.59
6. HMIMMTLGEKIRSIRKAKGMTQQELAEKLNTTKQTIGKYEKGIVTNLPLFRINELARALSTTPAYLTGW  -1.46
7. HMINEEELLKIENIKRKYPDSKAALMPVLYFFQEKYGFISDDSIKEISQLLNISEVDIKGVVSFYEMFHEK  -1.32
8. HMINRMGRLVEALSHMIANTKPGARLPSEPELARQLGVSRATLREAMRTFEAQGMIHRRQGAGTFVVH  -1.27
9. HMILNPQELGERIRKLRLKRNKTQSYFADMLYISSSYLALIESGKRVPNLDLLIHIAKFTDVTLDYLVFG  -1.24
10. HMINLDGIGEKISRLRKEQGVTIRELSEYTGYSVGFLSNLETGKNSPTVESLQRVAEALRTDIIEILTK  -1.2
11. HMIPLPEDVASMRERLALTPEKADELFGLEDGSFARYEHGEEKVPFVVFQLLWLLGKYPHLIGELR  -1.2
12. HMIKNDIGKFIKLYRETHQWSQRELAEHLGVSQRNVSYYEKGERIPPADVLKKLSTLFDVPVDVLLGLK  -1.18
13. HMIPDLPAVGVNVHKERRRQQLSLDALAAGSGVSKAMLSQIESGKVNPTVATMWKIAHALGVDFELLLKGE  -0.982
14. HMIPDPPALGSNLHRERRRQQLSLDALAAASGVSKAMLSQIEADKVNPTIATMWKIAHALNIDFETLLRGE  -0.963
15. HMINYSQKQLIAIQDELSKRFQALENESTKNNVTGFGVGLHYIDIDLIVNTPEKQKEFREKIMDSPAFRFN  -0.893
16. HMINIDESIDESLSEDDAVLDLLERASASFTKAQEALLEGDLGRYQTLIEQADRLVAKALELLDEKN  -0.808
17. HMINYYELLKLDMNAAHEEINDAIKLESEKNTIPEDQIRTMKSIFFNTEFKKEYDQRLMNFLLT  -0.671
18. HMIPDAIDPDGRFKWRAGEAVVGFGRHAGEPLKKIAIENPEFLRWILKADFSTDVKKIASDALKGYFPEK  -0.488
19. HMIMQTTSDRINQRMRDLGLQHKDLVAATGASKGTVTNWINGVNNPTGKRLVQLAQALKTTSSWLLTGN  -0.481
20. HMIQLKEHDVVRLRETIVENDEKIPAGTRGVVLSVYDGGRAFAVEVADDRAASAIITAFRDQLEVY  -0.467
21. HMIPSLTITVNEHSRQITRGTSLYTLRDALYPDADVLVVNGHPADSDRHLEEGDAVVLIRRGA  -0.456
22. HMINFSKNIISDTTSIKEAIEILNIISGRDNHILFVLNDKRQLIGTLSDGDVRRGMLASKTISQSVTEVM  -0.402
23. HMINIQYSYNDGKETLHNLSPEVIAEKIMDDPNGYHIVWKQGMVGWVNANDIDDIAKLLRQKK  -0.311
24. HMIKKAILPVAGLGTRFLPASKSIPKEMVTVVDRPAIEYVVREAVEAGIEQIILVTHSSKASIENYFDR  -0.192
25. HMILVLKPGAPEDLKNELIHDIEKMGLRVHVSVGEGTTIIGLIGDTSKISKYTFSSYEIVSNVLRVT  -0.188
26. HMINKDNLIEEILKFINTKIADISSNNPLFDIVAKPYISKVVTNNVSKLDKALSLIADDKGMVDADGLLT  -0.129
27. HMIMPSDATEAKLLGVLGNEPLHVDEIRNQAELPIEKVSAALALMELKGMVRQVGGMNYVAVR  -0.0915
28. HMINEVVSLRDVPSFIGKAKRDVIRIAEENNLKIKINGNGYVKEQTPNPGNKYKSNQEIKVFLEPG  -0.0743
29. HMIKKLDIEPIIKSVVDDFNNIYKLKRGITISYLNDGKNKYFINGIENRIEQIIANLLDNSISFSEDNKDV  0.0165
30. HMIPENKRVLISLTYIYGIGKKISQDILEKANIDSSIKTSQLTDDDVARIRQLIENDYLVEGELRV  0.0291
31. HMIKRDLAFSEFIAEVKAGQVREVTIKGNSISGNLNDGREFNTYAPNDPNLVKTLTDQGVLIRAIPLE  0.0691
32. HMINDPSALGQRAFVDELLWMAGYVPEKIEIYQTLPNNSRVYRVKLDSVNGGFIFIRWDKKKKEHYV  0.106
33. HMIQIQDIAFSEFLQELDKGNIVEVNIKGDLINGDLINGKKFKTVAPYDPNLVEKLSKQNVRINVEPIN  0.157
34. HMIQNTGMMESGDSIRGMALDAGFPLLMVVGYRGWTRKGNTPDSAAVYTEPFLNAFRLNYYLVEHDE  0.3

Source: the domain aggregation screens of Martell et al. (2025)
